Ends that are not written are not given here.
Target: human α-thrombin (human, UniProt P00734 364-622)
Test: ELISA
Settings: both partners purified

Ac-GDFEPIPEDAYDE [H6HV3_(54-66) synthetic peptide]
IC50: 740 nM

Ac-GDFEPIPEDAYDE (not fully specified (C-terminus)) [H6HV3_(54-66)G6 synthetic peptide]
IC50: 1400 nM

Reference: publication PMC3830444 (BMC Biochemistry, 2013)
